These results are taken from paper PMC3195435.

Holding throughout (settings): 4% glycerol, 1 mM MgCl2, 1 mM DTT, 50 mM NaCl, 10 mM Tris-HCl pH 7.5, room temperature 30 min; EMSA on 4% native PAGE in 45 mM Tris-borate, 2 mM EDTA pH 8.3 at …
The subject of series [1] is anti-FLAG M2 antibody (mouse). Kind of series: competition.
Series [2] concerns anti-FLAG M2 antibody (mouse). Kind of series: EMSA.
For series [3], the system named is anti-FLAG M2 antibody (mouse). Kind of series: bead pull-down, competition.

Sequence TCGATTTCCTTAGTTGTCTTCCTTAGTGAG [ABA] came in with a binding signal (% inhibition of Flag-TRF2dB capture) in series [1] of 45. Further, the Kd in series [2] stood at 0.08 µM. The IC50 in series [3] amounted to 0.096 µM.
In the case of “TCGATTTCCTTAGTTGTCTTCCTTAGTTGTCTTCCTTAGTTGTCTTCCTTAGTGAG [3XABA]”, in series [1], the binding signal (% inhibition of Flag-TRF2dB capture) came out at 62 and the binding signal (% release of bound Flag-TRF2dB) turned out to be 36.
